Results taken from the supplement of paper PMC10567573.

B1: C8orf76 (parent)
chain: YCAKLCEPQWFYEETESSDDVEVL
B2: PBXIP1 (parent)
chain: FGEDGIFRHDRLRFRDFVDALEDS

Variants of: B1
Experiment: protein stability index of a GFP-peptide fusion (GPS, HEK-293T) (PSI 1-6); higher = more stable
Details: c terminus: a fixed tail appended
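Also: lentivirally expressed fusions sorted by FACS into six bins by GFP to DsRed ratio, PSI derived from sequencing read proportions per bin multiplied by bin number.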

Protein stability index: each site, then its substitutions
L24: G 2.54 | M 2.65 | F 2.43 | I 2.73 | N 2.36 | K 3 | Q 1.86 | R 2.78 | W 1.85 | P 2.69 | A 2.45 | Y 1.76 | E 2.62 | C 2.9 | S 2.66 | V 2.31 | D 2.56 | T 2.11 | H 2.15
E14: H 2.1 | D 2.36 | I 1.23 | Y 2.04 | P 1.84 | F 2.24 | C 1.8 | K 1.39 | A 2.14 | V 1.86 | W 1.46 | T 2.17 | G 2.11 | R 1.8 | M 2.78 | S 2.15 | L 2.29 | Q 1.72 | N 2.37
V23: F 2.45 | M 2.48 | L 2.05 | P 2.87 | T 2.17 | W 1.98 | E 2.33 | R 2.44 | Q 2.8 | N 3.18 | H 2.62 | K 1.96 | A 2.68 | G 2.39 | Y 2.78 | I 2.08 | S 2.53 | C 2.47 | D 2.41
D19: L 1.76 | R 2 | H 2.25 | T 2.19 | V 2.07 | S 2.08 | A 2.15 | C 1.4 | N 2.26 | F 2.1 | K 2.3 | W 1.41 | P 1.57 | Q 2.2 | G 2.09 | I 1.76 | Y 1.76 | M 1.58 | E 2.35
V21: M 2.19 | A 2.3 | C 2.41 | N 2.35 | F 2.12 | W 2.04 | S 2.46 | Q 2.53 | K 2.99 | I 2.39 | E 2.43 | Y 2.48 | D 2.53 | R 2.27 | G 2.56 | T 3.28 | P 2.38 | L 2.07 | H 2.27
S18: F 1.49 | D 2.6 | G 2.39 | V 2.1 | P 2.3 | H 2.06 | Y 2.29 | T 2.11 | C 2.13 | I 1.88 | N 2.33 | Q 2.38 | K 2.28 | R 2 | L 2.23 | M 2.34 | A 2.54 | E 2.54
F11: V 3.38 | R 2.89 | Y 1.88 | W 2.63 | Q 3.57 | T 3.48 | S 3.54 | P 3.44
Y12: V 2.16 | R 2.76 | Q 2.23 | W 1.8 | M 1.97 | T 1.82 | S 2.52 | E 3.35 | K 2.39 | A 2.28 | F 2.43 | L 2.14 | I 1.97 | C 1.98 | D 3.63 | H 2.44 | N 2.62 | P 3.15 | G 2.62
T15: H 2.12 | A 2.63 | S 2.54 | I 1.91 | F 2.02 | E 2.72 | W 1.81 | Y 1.96 | P 2.84 | K 2.08 | Q 2.43 | N 2.08 | G 2.27 | R 2.9 | D 2.9 | M 1.91 | L 1.75 | V 2.17 | C 2.16
D20: K 2.01 | T 2.18 | M 2.02 | R 1.5 | W 1.79 | G 1.37 | F 2.04 | E 1.92 | V 1.86 | A 2.27 | L 1.67 | S 2.29 | N 2.05 | Q 1.86 | I 1.74 | C 2.49 | H 1.91 | P 1.81 | Y 1.76
E22: W 2.28 | N 2.14 | F 1.6 | S 2.31 | A 2.2 | M 1.49 | C 2.06 | T 2.07 | Y 1.63 | Q 2.61 | D 1.98 | H 2.06 | V 1.36 | P 2.33 | R 2.14 | L 1.38 | I 2.03 | G 2.31 | K 2.21
S17: C 1.68 | N 2.4 | Y 2.24 | E 2.85 | I 1.83 | Q 2.35 | A 2.38 | R 2.25 | D 3.15 | W 2.74 | G 3.01 | K 2 | V 2.25 | T 2.42 | M 2.14 | F 1.87 | H 1.87 | L 1.98 | P 2.34
E13: D 2.04 | N 1.6 | Y 1.55 | P 1.92 | I 2.1 | M 2.13 | T 2.1 | Q 1.65 | K 1.42 | F 2.16 | S 2.51 | R 1.64 | V 1.57 | A 2.11 | H 1.91 | W 1.8 | L 2.12 | G 1.26
E16: H 3.15 | M 2.31 | A 2.25 | L 3.46 | D 2.41 | G 1.87 | N 1.89 | F 2.19 | S 1.74 | V 1.53 | T 2.22 | Y 2.59 | C 1.58 | I 2.14 | R 1.77 | W 1.65 | K 2.28 | P 1.65 | Q 1.54

Variants of: B2
Experiment: as above
Details: c terminus: a fixed tail appended

Protein stability index of substitutions, site by site:
F1: A 4.02 | G 3.59 | P 4.16 | L 3.14 | K 2.64 | D 4.29 | S 3.74 | M 3.24 | T 3.08 | H 3.76 | W 3.1 | Q 4.12 | Y 2.72 | R 3.78 | E 4.29 | V 3.77 | I 3.6 | C 2.39 | N 3.81
E3: P 2.28 | H 2.89 | K 2.52 | Q 2.91 | F 2.18 | G 2.11 | V 2.05 | D 3.01 | S 2.02 | L 2.44 | I 2.91 | C 2.17 | Y 3.04 | N 1.99 | W 2.18 | A 2.75 | M 2.45 | R 3.02 | T 2.28
G2: E 3.73 | M 2.91 | C 2.83 | Y 3.09 | H 2.09 | T 2.35 | F 2.75 | N 3.09 | A 1.63 | D 3.36 | V 2.26 | W 2.95 | I 1.97 | S 2.48 | R 2.69 | Q 2.66 | K 2.81 | P 2.61 | L 2.96
G5: E 3.68 | F 1.66 | A 3.02 | C 2.67 | D 3.5
D4: W 1.72 | E 3.08 | I 1.73 | T 2.24 | P 1.94 | R 2.74 | N 1.98 | C 2.52 | Y 1.73 | A 1.62 | Q 1.83 | H 1.89 | S 1.77 | K 1.82 | M 1.79 | G 1.17 | F 1.74 | L 1.99 | V 2.76
